Here are results for two compounds from article PMC5805349, “Recombinant expression, purification and biochemical characterization of kievitone hydratase from Nectria haematococca” (PLoS ONE, 2018).

One series concerns the target T1, FsKHS (Fusarium phaseoli, UniProt Q00870).
T1 construct: gene khs; 19-residue signal peptide cleaved between Ala19 and Ser20; C-terminal His10 tag
The series is described as follows: HPLC conversion assay with P. pastoris culture supernatant. The class given is biochemical. The note with it: 2 mM kievitone, 35°C, culture supernatant of P. pastoris expressing FsKHS, mere turnover.

Series [1] deals with COc1cc(O)c(CC=C(C)C)c(O)c1C(=O)/C=C/c1ccc(O)cc1. The series is described as follows: purified protein. The note with it: 50 mM sodium citrate, pH 6.0, 35°C, 2% v/v ethanol, 0.05 mg/mL enzyme, apparent because of low XN solubility, water is co-substrate.

T1 sequence (Q00870 20-350): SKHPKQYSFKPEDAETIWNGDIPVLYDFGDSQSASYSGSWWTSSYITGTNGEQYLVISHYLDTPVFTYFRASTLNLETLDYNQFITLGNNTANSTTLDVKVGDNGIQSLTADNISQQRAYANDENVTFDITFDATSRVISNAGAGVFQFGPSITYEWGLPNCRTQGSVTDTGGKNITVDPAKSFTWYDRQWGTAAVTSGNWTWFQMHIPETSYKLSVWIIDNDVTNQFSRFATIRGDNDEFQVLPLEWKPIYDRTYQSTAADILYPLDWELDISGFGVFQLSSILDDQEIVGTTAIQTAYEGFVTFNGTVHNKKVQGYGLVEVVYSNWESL

With `CC(C)=CCc1c(O)cc(O)c2c1OCC(c1ccc(O)cc1O)C2=O` (stereo not drawn) [KV, kievitone], the “% substrate converted in 3 h” value at FsKHS is listed as ~ 89%.
Take NhKHS (Fusarium vanettenii 77-13-4): in series [1], the Km stood at 980 ± 130 µM and the kcat was 4.77 ± 0.33 s⁻¹.

A word on the Km: it is the substrate concentration at which the rate is half of its maximum. What is called kcat is the maximal rate divided by the concentration of active sites.
